Target: His-LC3A (human, UniProt Q9H492 1-121)
Assay: ITC

Kd: 20.4 µM
Binder: GSGTWTLVDEG [hEPG5-LIR1 peptide]

Source: article PMC7935953 (2021)
